Experimental findings from US20210340232A1, “MONOCLONAL ANTIBODIES AGAINST HUMAN DICKKOPF3 AND USES THEREOF” (Board of Regents, The University of Texas System, priority 2018, published 2021) are described below.

In this assay the test system is BxPC3 cells. The experiment in a line: BxPC3 Transwell migration in response to rhDKK3. It is filed as cell-based, human. The settings on record: BxPC3, rhDKK3 10 μg/ml, 48 hours. The protocol: HPSCs and BxPC3 cells were treated with DKK3 mAb clones JM6-6-1 and JM8-12-1 or isotype control mAb or PBS. (FIGS. 5A-B) HPSC apoptosis and migration as measured by FACS and Transwell migration assay at 48 hours. (FIG. 5C) BxPC3 migration in response to rhDKK3 10 μg/ml as measured by Transwell migration assay at 48 hours. (FIG. 5D) BxPC3 resistance to gemcitabine 100 μM as measured by MTS proliferation assay at 6 days. HPSC-CM, pancreatic stellate cell conditioned media, 10 μg/ml. The orthotopic co-injection BxPC3+ HPSC model of PDAC was used to test the efficacy of DKK3 mAb clones JM6-6-1 or JM8-12-1 (5 mg/kg i.p. once every 5 days). (FIG. 5E) Overall tumor progression was measured every 3-4 days by IVIS imaging. (FIG. 5F) Metastatic tumors in the peritoneal cavity after removal of the primary pancreatic tumor are shown by IVIS imaging. (FIG. 5G) Kaplan Meier survival curve showing mice treated with DKK3 mAb clone JM8-12 (right-most line), control mAb (middle line), or PBS (left-most line). (FIG. 5H) KPC mice (P48-Cre; Kras LSL-G12D;Trp53fl/fl) with either wild type DKK3 (solid lines) or deficient in DKK3 (“DKK3-KO,” dashed lines) were treated with DKK3 mAb JM6-6-1 (5 mg/kg i.p. once every 5 days), PBS or control mAb. […]
Cell-based assays. Cell proliferation was measured by the MTS assay (Promega, Madison, Wis.). […]

B1: JM6-6-1: monoclonal antibody against human DKK3; heavy chain variable SEQ ID NO: 19, light chain variable SEQ ID NO: 20 (antibody, V domains shown)
VH: EVKLVESGGGLVKPGGSLKLSCAASGFTFTIEYMAWIRQTPEKRLEWVASISSGGDDIYYADNVKGRFTISRDNAKNTLYLQMSSLKSEDTAIYYCSRSLSDWGQGTTLTVSSAKTTPPSDYPLA
VL: MTQTPLSLPVSLGDQASISCRSSQSILHSNGHTYLEWYLQKPGQSPKLLIYKVSNRFSGVPDRFSGSGSGTDFTLKISRVEAEDLGVYYCFQGSHVPFTFGSGTKLEIERADAAQ
B1: the “effect on DKK3-mediated induction of migration” value was “reverse the DKK3-mediated induction of migration”.
